The numbers were not newly measured in publication PMC7031699, which cites them from elsewhere.

Like-named read-outs stand apart in the source and are kept apart here.

The target of data set [1] is Gq (Homo sapiens) (UniProt P50148).
For data set [2] the target is unchanged. This is another data set of the same source.

Sequence of UniProt P50148 (P50148 whole entry): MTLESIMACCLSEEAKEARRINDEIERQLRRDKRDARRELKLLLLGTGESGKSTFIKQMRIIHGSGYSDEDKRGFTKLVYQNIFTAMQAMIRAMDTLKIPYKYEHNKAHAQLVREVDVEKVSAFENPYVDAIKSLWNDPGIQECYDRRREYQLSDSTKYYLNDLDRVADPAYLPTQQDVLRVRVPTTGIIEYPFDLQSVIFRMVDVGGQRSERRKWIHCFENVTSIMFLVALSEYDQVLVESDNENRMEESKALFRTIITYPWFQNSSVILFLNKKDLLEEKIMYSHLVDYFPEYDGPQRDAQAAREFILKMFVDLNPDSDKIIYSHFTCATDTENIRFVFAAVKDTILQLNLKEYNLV

By Kd is commonly meant the free concentration of one partner at which half of the binding sites on the other are occupied at equilibrium, for simple one-to-one binding. For NTS1 (from UniProt P20789), the values for the equilibrium dissociation constant (Kd) with Gq (Homo sapiens) [1] and in the data set with Gq (Homo sapiens) [2] were 550 nM and greater than 5000 nM, respectively.
